The target of assay [1] is FHCS-1 (RSV strain A2) (UniProt P03420). As to the kind of experiment: ELISA; F coated 2500 ng/ml; stored -80° C. Background: In an ELISA, binding on a coated surface is turned into a signal by an enzyme label.
Assay [2] addresses FHCS-2 (RSV strain A2) (UniProt P03420). As to the kind of experiment: ELISA; F coated 2500 ng/ml; stored -80° C.
The target in assay [3] is FHCS-4 (RSV strain A2) (UniProt P03420). As to the kind of experiment: ELISA; F coated 2500 ng/ml; stored -80° C.
In the next assay the target is FHM-1 (RSV strain A2) (UniProt P03420). As to the kind of experiment: sandwich ELISA, AM14 coated, supernatant 1:10.
The target of another assay is FHM-13 (RSV strain A2) (UniProt P03420). The assay can be described thus: sandwich ELISA, AM14 coated, supernatant 1:10.
The next assay has as its target FHM-16 (RSV strain A2) (UniProt P03420). As to the kind of experiment: sandwich ELISA, AM14 coated, supernatant 1:10.
For the next assay, the target named is FHM-23 (RSV strain A2) (UniProt P03420). As to the kind of experiment: sandwich ELISA, AM14 coated, supernatant 1:10.
The target in another assay is FHS-15 (RSV strain A2) (UniProt P03420). As to the kind of experiment: sandwich ELISA, AM14 coated, supernatant 1:10.
The next assay has as its target FHS-26 (RSV strain A2) (UniProt P03420). The assay can be described thus: sandwich ELISA, AM14 coated, supernatant 1:10.
A further assay deals with FHS-28 (RSV strain A2) (UniProt P03420). As to the kind of experiment: sandwich ELISA, AM14 coated, supernatant 1:10.
Another assay has as its target FHS-30 (RSV strain A2) (UniProt P03420). The assay can be described thus: sandwich ELISA, AM14 coated, supernatant 1:10.
A further assay has as its target FHS-47 (RSV strain A2) (UniProt P03420). The assay can be described thus: sandwich ELISA, AM14 coated, supernatant 1:10.
The next assay deals with FHS-57 (RSV strain A2) (UniProt P03420). The assay can be described thus: sandwich ELISA, AM14 coated, supernatant 1:10.
The target in a further assay is FHS-59 (RSV strain A2) (UniProt P03420). The assay can be described thus: sandwich ELISA, AM14 coated, supernatant 1:10.
In a further assay the target is FHS-62 (RSV strain A2) (UniProt P03420). The assay can be described thus: sandwich ELISA, AM14 coated, supernatant 1:10.
For a further assay, the target named is FHS-69 (RSV strain A2) (UniProt P03420). The assay can be described thus: sandwich ELISA, AM14 coated, supernatant 1:10.
The target of the next assay is FHS-75 (RSV strain A2) (UniProt P03420). As to the kind of experiment: sandwich ELISA, AM14 coated, supernatant 1:10.
A further assay concerns the target FHS-86 (RSV strain A2) (UniProt P03420). As to the kind of experiment: sandwich ELISA, AM14 coated, supernatant 1:10.
A further assay deals with FHS-9 (RSV strain A2) (UniProt P03420). The assay can be described thus: sandwich ELISA, AM14 coated, supernatant 1:10.
Another assay concerns the target FHS-92 (RSV strain A2) (UniProt P03420). The assay can be described thus: sandwich ELISA, AM14 coated, supernatant 1:10.
Assay [4] has as its target FHCS-1 (RSV strain A2) (UniProt P03420). The assay can be described thus: ELISA; F coated 312.5 ng/ml; stored -80° C.
In assay [5] the target is FHCS-2 (RSV strain A2) (UniProt P03420). As to the kind of experiment: ELISA; F coated 312.5 ng/ml; stored -80° C.
The target in assay [6] is FHCS-4 (RSV strain A2) (UniProt P03420). As to the kind of experiment: ELISA; F coated 312.5 ng/ml; stored -80° C.
Assay [7] has as its target FHCS-1 (RSV strain A2) (UniProt P03420). As to the kind of experiment: ELISA; F coated 156.3 ng/ml; stored 37° C. 2 W.
In assay [8] the target is FHCS-2 (RSV strain A2) (UniProt P03420). The assay can be described thus: ELISA; F coated 156.3 ng/ml; stored 37° C. 2 W.
Assay [9] deals with FHCS-4 (RSV strain A2) (UniProt P03420). The assay can be described thus: ELISA; F coated 156.3 ng/ml; stored 37° C. 2 W.
The target in assay [10] is FHCS-1 (RSV strain A2) (UniProt P03420). As to the kind of experiment: ELISA; F coated 78.13 ng/ml; stored 37° C. 2 W.
Assay [11] has as its target FHCS-2 (RSV strain A2) (UniProt P03420). The assay can be described thus: ELISA; F coated 78.13 ng/ml; stored 37° C. 2 W.
Assay [12] has as its target FHCS-4 (RSV strain A2) (UniProt P03420). As to the kind of experiment: ELISA; F coated 78.13 ng/ml; stored 37° C. 2 W.

Values joined by “and” are separate entries in the source; they are usually repeats but may differ in a detail not shown here. Equal entries are not always repeated.

As for AM14 monoclonal antibody, the OD value with FHCS-1 (RSV strain A2) [1] is 0.034 OD and 0.039 OD; in the assay with FHCS-2 (RSV strain A2) [2], 0.051 OD and 0.056 OD; with FHCS-4 (RSV strain A2) [3], 0.008 OD and 0.007 OD; with FHM-1 (RSV strain A2) it was 2.29 OD; with FHM-13 (RSV strain A2), 1.07 OD; with FHM-16 (RSV strain A2) it was 0.26 OD. The OD value amounted to 1.89 OD with FHM-23 (RSV strain A2); 0.091 OD in the assay with FHS-15 (RSV strain A2); 0.841 OD in the assay with FHS-26 (RSV strain A2); 0.008 OD with FHS-28 (RSV strain A2); 0.009 OD with FHS-30 (RSV strain A2); 1.32 OD in the assay with FHS-47 (RSV strain A2). The OD value was 0.007 OD in the assay with FHS-57 (RSV strain A2); 0.006 OD in the assay with FHS-59 (RSV strain A2); 0.01 OD with FHS-62 (RSV strain A2); 1.88 OD in the assay with FHS-69 (RSV strain A2); 0.028 OD with FHS-75 (RSV strain A2); 0.062 OD with FHS-86 (RSV strain A2). Also, the OD value with FHS-9 (RSV strain A2) turned out to be 0.009 OD; with FHS-92 (RSV strain A2), 0.012 OD.
As to Synagis® (antibody), the OD value was 0.065 OD and 0.053 OD with FHCS-1 (RSV strain A2) [4]; 0.109 OD and 0.097 OD with FHCS-2 (RSV strain A2) [5]; 0.032 OD and 0.028 OD with FHCS-4 (RSV strain A2) [6]; 0.017 OD and 0.018 OD with FHCS-1 (RSV strain A2) [7]; 0.037 OD and 0.036 OD with FHCS-2 (RSV strain A2) [8]; 0.033 OD and 0.024 OD with FHCS-4 (RSV strain A2) [9]. Also, the OD value was 0.01 OD and 0.015 OD with FHCS-1 (RSV strain A2) [10]; 0.018 OD and 0.022 OD with FHCS-2 (RSV strain A2) [11]; 0.018 OD and 0.015 OD with FHCS-4 (RSV strain A2) [12].

For the origin of these results see patent US20260117202A1.
